According to patent US20120316071A1 (published 2012):
One block for each binder: values may come before it.

How the values were obtained:
[1] = biological target: T1, rHuman Erythropoietin R/Fc Chimera, CF (R&D Systems Cat#963-ER) (human, UniProt P19235 25-250); test: ECL Multispot (MSD), antigen spotted; Fab 50 (µM); blank 386
T1 construct: Bought recombinant protein; also called EPO R; EPO R/Fc; Fc part of the bought chimera not given
T1 sequence (looked up): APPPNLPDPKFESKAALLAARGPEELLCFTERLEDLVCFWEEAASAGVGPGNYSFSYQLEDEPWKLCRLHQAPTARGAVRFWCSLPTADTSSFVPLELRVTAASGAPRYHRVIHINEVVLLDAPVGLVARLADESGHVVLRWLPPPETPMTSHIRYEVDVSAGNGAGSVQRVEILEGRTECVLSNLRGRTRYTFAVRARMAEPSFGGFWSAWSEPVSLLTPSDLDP

[2] = biological target: T2, Recombinant Human DLL4 (R&D Systems Cat#1506-D4/CF) (human, UniProt Q9NR61 27-529); test: as above
T2 construct: Bought recombinant protein; also called delta-like protein 4; rHuman DLL4

[3] = biological target: T3, rHuman ErbB2/Fc Chimera, CF (R&D Systems Cat#1129-ER) (human, UniProt P04626 23-652); test: as above
T3 construct: Bought recombinant protein; Fc part of the bought chimera not given

[4] = biological target: T4, rHuman EGF R/Fc Chimera, CF (R&D Systems Cat#344-ER) (human, UniProt P00533 25-645); test: as above
T4 construct: Bought recombinant protein; Fc part of the bought chimera not given

[5] = biological target: T5, rHuman HGF R/c-MET/Fc Chimera, CF (R&D Systems Cat#358-MT/CF) (human, UniProt P08581 25-932); test: as above
T5 construct: Bought recombinant protein; also called HGF R/Fc; Fc part of the bought chimera not given

[6] = biological target: T6, rHuman Notch-1/Fc Chimera, CF (R&D Systems Cat#3647-TK) (human, UniProt P46531 19-526); test: as above
T6 construct: Bought recombinant protein; Fc part of the bought chimera not given

[7] = biological target: T7, rHuman CD44/Fc Chimera, CF (R&D Systems Cat#3660-CD) (human, UniProt P16070 21-220); test: as above
T7 construct: Bought recombinant protein; Fc part of the bought chimera not given

[8] = biological target: T8, rHuman IGF-1 sR, CF (R&D Systems Cat#391-GR) (human, UniProt P08069 31-932); test: as above
T8 construct: Bought recombinant soluble receptor; also called insulin-like growth factor-1 soluble receptor

[9] = biological target: T9, rHuman P-Cadherin/Fc Chimera, CF (R&D Systems Cat#861-PC) (human, UniProt P22223 108-654); test: as above
T9 construct: Bought recombinant protein; Fc part of the bought chimera not given

[10] = biological target: T10, Recombinant Human DLL4 (R&D Systems Cat#1506-D4/CF) (human, UniProt Q9NR61 27-524); test: Multispot ECL (MSD), antigen spotted on plate, Fab 125 nM; blank spot 403
T10 construct: Bought recombinant protein; also called rHuman DLL4; delta-like protein 4

[11] = biological target: T11, rHuman Notch-1/Fc Chimera, CF (R&D Systems Cat#3647-TK) (human, UniProt P46531 19-526); test: as above
T11 construct: Bought recombinant protein; Fc part of the bought chimera not given

[12] = biological target: T12, rHuman Erythropoietin R/Fc Chimera, CF (R&D Systems Cat#963-ER) (human, UniProt P19235 25-250); test: as above
T12 construct: Bought recombinant protein; also called EPO R/Fc; Epo R; Fc part of the bought chimera not given
T12 sequence (looked up): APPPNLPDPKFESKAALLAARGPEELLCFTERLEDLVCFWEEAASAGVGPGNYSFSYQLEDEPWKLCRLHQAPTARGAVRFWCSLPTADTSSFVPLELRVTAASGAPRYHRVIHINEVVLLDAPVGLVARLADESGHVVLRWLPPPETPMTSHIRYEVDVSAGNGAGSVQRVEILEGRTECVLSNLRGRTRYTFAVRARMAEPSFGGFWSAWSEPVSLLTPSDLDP

[13] = biological target: T13, Recombinant Human DLL4 (R&D Systems Cat#1506-D4/CF) (human, UniProt Q9NR61 27-524); test: MSD Multispot ECL, antigen spotted on plate, Fab at 30 nM; blank spot 213
T13 construct: Bought recombinant protein; also called rHuman DLL4; delta-like protein 4

[14] = biological target: T14, rHuman Notch-1/Fc Chimera, CF (R&D Systems Cat#3647-TK) (human, UniProt P46531 19-526); test: as above
T14 construct: Bought Fc chimera; Fc part of the bought chimera not given

[15] = biological target: T15, rHuman CD44/Fc Chimera, CF (R&D Systems Cat#3660-CD) (human, UniProt P16070 21-220); test: as above
T15 construct: Bought Fc chimera; Fc part of the bought chimera not given

[16] = biological target: T16, rHuman P-Cadherin/Fc Chimera, CF (R&D Systems Cat#861-PC) (human, UniProt P22223 108-654); test: as above
T16 construct: Bought Fc chimera; Fc part of the bought chimera not given

[17] = biological target: T17, rHuman Erythropoietin R/Fc Chimera, CF (R&D Systems Cat#963-ER) (human, UniProt P19235 25-250); test: as above
T17 construct: Bought Fc chimera; also called EPO R/Fc; Epo R; Fc part of the bought chimera not given
T17 sequence (looked up): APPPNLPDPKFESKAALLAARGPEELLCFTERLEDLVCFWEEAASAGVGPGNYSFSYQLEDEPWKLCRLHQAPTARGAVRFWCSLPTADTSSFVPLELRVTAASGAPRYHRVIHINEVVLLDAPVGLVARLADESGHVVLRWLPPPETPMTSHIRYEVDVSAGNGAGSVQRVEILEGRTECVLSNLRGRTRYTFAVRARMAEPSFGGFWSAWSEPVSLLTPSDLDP

[18] = biological target: T18, rHuman Erythropoietin R/Fc Chimera, CF (R&D Systems Cat#963-ER) (human, UniProt P19235 25-250); test: MSD Multispot ECL, antigen spotted on plate, Fab 8.1 nM; blank spot 435
T18 construct: Bought reagent; also called EPO R/Fc; EPO R; Fc part of the bought chimera not given
T18 sequence (looked up): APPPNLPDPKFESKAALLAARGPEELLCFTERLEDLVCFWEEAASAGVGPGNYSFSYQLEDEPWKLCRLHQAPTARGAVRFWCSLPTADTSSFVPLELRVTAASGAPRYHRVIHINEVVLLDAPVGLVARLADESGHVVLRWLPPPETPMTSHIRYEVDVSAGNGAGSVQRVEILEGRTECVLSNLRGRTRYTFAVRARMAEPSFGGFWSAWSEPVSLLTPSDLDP

[19] = biological target: T19, rHuman CD44/Fc Chimera, CF (R&D Systems Cat#3660-CD) (human, UniProt P16070 21-220); test: as above
T19 construct: Bought reagent; Fc part of the bought chimera not given

T5 sequence (P08581 25-932, change not shown): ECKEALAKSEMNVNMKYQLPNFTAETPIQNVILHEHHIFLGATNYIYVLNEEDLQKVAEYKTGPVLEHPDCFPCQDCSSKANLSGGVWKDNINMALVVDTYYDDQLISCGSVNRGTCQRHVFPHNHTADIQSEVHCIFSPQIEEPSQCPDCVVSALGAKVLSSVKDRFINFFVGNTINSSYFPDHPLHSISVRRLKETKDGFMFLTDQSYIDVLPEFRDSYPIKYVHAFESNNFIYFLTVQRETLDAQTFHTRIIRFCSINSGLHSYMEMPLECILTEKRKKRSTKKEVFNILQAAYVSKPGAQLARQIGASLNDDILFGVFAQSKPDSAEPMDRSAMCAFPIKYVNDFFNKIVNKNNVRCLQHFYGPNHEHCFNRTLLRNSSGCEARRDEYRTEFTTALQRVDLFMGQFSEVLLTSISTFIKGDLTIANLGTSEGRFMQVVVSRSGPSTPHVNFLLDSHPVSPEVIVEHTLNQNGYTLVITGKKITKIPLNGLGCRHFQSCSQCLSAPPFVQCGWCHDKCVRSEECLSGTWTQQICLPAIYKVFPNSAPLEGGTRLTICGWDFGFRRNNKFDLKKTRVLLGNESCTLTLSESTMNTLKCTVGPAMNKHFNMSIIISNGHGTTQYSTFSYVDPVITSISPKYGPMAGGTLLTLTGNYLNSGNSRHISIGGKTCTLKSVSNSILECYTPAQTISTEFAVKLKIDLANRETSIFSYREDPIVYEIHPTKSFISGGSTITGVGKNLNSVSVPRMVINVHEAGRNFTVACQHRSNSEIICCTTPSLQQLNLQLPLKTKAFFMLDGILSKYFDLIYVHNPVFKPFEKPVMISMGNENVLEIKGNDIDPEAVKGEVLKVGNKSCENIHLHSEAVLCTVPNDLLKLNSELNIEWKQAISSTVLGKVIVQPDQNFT

B1: Fab VH1-46_IGHD6-6*01_IGHJ1*01 S102A/S103P/S104F (APF) & L6_IGKJ1*01 (Fab, V domains shown)
VH: QVQLVQSGAEVKKPGASVKVSCKASGYTFTSYYMHWVRQAPGQGLEWMGIINPSGGSTSYAQKFQGRVTMTRDTSTSTVYMELSSLRSEDTAVYYCAREEYAPFSAEYFQHWGQGTLVTVSS
VL: not shown
notes: Tested as a Fab made in E. coli: VH cloned in Plasmid A (CH1 constant region, His6 and Flag tags), VL in Plasmid C (kappa constant region); also called H:APF & L:wt; APF triple mutant
ECL signal [1]: 768
ECL signal [2]: 80000
ECL signal [3]: 672
ECL signal [4]: 585
ECL signal [5]: 525
ECL signal [6]: 509
ECL signal [7]: 557
ECL signal [8]: 558
ECL signal [9]: 652

B3: Fab VH6-1_IGHD3-3*01_IGHJ4*01 & V4-3_IGLJ4*01 (Fab, V domains shown)
VH: QVQLQQSGPGLVKPSQTLSLTCAISGDSVSSNSAAWNWIRQSPSRGLEWLGRTYYRSKWYNDYAVSVKSRITINPDTSKNQFSLQLNSVTPEDTAVYYCAREYYDFWSGYYTDYFDYWGQGTLVTVSS
VL: QPVLTQPTSLSASPGASARLTCTLRSGINLGSYRIFWYQQKPESPPRYLLSYYSDSSKHQGSGVPSRFSGSKDASSNAGILVISGLQSEDEADYYCMIWHSSASFVFGGGTQLIIL
notes: Tested as a purified germline Fab made in E. coli; The VH was cloned into plasmid A (CH1 constant region, His6 and Flag tags) and the lambda VL into plasmid E (lambda CL)
ECL signal [13]: 736
ECL signal [14]: 425
ECL signal [15]: 484
ECL signal [16]: 440
ECL signal [17]: 325

Next, values leading:

ECL signal [10]: 912
ECL signal [11]: 802
ECL signal [12]: 9240
B2: Fab VH1-46_IGHD6-13*01_IGHJ4*01 & B3_IGKJ1*01 (Fab, V domains shown)
VH: QVQLVQSGAEVKKPGASVKVSCKASGYTFTSYYMHWVRQAPGQGLEWMGIINPSGGSTSYAQKFQGRVTMTRDTSTSTVYMELSSLRSEDTAVYYCAREGYSSSWYDYFDYWGQGTLVTVSS
VL: not shown
notes: Germline Fab made in E. coli; VH was cloned into Plasmid A (CH1, His6 and Flag tags) and the kappa VL into Plasmid C (kappa CL)

ECL signal [18]: 660
ECL signal [19]: 528
B4: Fab VH1-8_IGHD2-2*01_IGHJ6*01 & L12_IGKJ1*01 (Fab, V domains shown)
VH: QVQLVQSGAEVKKPGASVKVSCKASGYTFTSYDINWVRQATGQGLEWMGWMNPNSGNTGYAQKFQGRVTMTRNTSISTAYMELSSLRSEDTAVYYCARGGYCSSTSCYADYYYYYGMDVWGQGTTVTVSS
VL: not shown
